Assay results from publication PMC11218510, “Functional analysis of the methylerythritol phosphate pathway terminal enzymes IspG and IspH from Zymomonas mobilis” (Microbiology Spectrum, 2024).

Target: the molecule itself
Test: native gel or EMSA; 4%-16% Bis-Tris Native gel; 50 μM IspG, 50 μM IspH and a mixture of 25 μM each

B1: Z. mobilis Strep-tag II IspG (enzyme, UniProt Q5NR50 1-377, looked up)
chain: MSIRPWRHIERRKSRKIMVGNVAVGGDAPISVQTMTNTPTVDAQATIAQIKRCEAVGVDLIRVSCPDKESTAALKDIVRAAEVPIIADIHFHYKRALEAADAGAACLRINPGNIGSSERVAEVVRAAKANGCAIRIGVNAGSLEKELLEKYGEPCPDALVESALNHIKLLQDQDFHEFKVAVKASDVFLAVASYKALAKAVDCPLHLGITEAGGLIGGTVKSALGIGNLLWDGIGDTLRVSLSADPEQEVRVGYDILKTLDLRTRGVRVVSCPSCARQGFDVVKTVKALEERLAHIATPISLSILGCVVNGPGEARETDIGVTGGGQGKHMVFLSGVTDHTVEDAKMLDHIVSLVEAKAAEIEAEKAKEKAATVAAE
notes: IspG of Zymomonas mobilis ZM4; coding region amplified from genomic DNA; carries a [4Fe-4S] cluster (occupancy 5-10%); also called Z. mobilis IspG; ispGZM; source: E. coli PK13681 (BL21 (DE3) derivative) with pPK13651 (pET11a), purified anaerobically (Streptrap HP, PD-10 desalting); not shown: Strep-tag II, C-terminal, kept
In the case of B1, the “stoichiometry N” value is reported as 2.
